Assay results from PMC5732302.

Biological target: taxol-stabilized microtubules (control, undigested, with E-hooks) (porcine) (UniProt P02550)
Sequence (P02550 whole entry, chain 1 of 2): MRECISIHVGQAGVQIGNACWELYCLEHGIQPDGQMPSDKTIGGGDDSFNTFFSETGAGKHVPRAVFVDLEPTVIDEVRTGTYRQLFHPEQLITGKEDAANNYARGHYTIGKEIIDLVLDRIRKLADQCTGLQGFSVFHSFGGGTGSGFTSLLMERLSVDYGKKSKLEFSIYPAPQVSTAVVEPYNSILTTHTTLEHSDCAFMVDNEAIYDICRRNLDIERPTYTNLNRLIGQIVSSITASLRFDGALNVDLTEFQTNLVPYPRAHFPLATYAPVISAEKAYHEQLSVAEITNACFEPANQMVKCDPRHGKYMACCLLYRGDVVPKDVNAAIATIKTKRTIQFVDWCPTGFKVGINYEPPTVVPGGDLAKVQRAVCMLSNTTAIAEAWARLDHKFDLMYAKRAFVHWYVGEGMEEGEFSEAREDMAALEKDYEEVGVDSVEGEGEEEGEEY
Sequence (chain, as listed by the source, chain 2 of 2): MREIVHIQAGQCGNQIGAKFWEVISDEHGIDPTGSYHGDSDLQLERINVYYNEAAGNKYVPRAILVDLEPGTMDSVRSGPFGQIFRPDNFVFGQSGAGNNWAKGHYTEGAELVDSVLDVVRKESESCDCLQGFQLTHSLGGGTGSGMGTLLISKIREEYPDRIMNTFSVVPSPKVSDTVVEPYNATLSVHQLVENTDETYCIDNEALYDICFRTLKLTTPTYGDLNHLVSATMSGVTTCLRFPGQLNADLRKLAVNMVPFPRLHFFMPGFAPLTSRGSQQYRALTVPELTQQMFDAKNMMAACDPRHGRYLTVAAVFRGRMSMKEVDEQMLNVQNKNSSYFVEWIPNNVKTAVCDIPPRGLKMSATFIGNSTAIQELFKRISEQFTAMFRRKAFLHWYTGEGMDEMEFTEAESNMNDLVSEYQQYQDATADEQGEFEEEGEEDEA

K m(MT) of the microtubule-stimulated ATPase activity of GST–dynein331 (0–2 µM microtubules), with 200 nM She1: 0.04 µM
K m(MT) of the microtubule-stimulated ATPase activity of GST–dynein331 (0–2 µM microtubules), without She1: 0.1 µM
Substance: GST–dynein331, artificially dimerized (via glutathione S-transferase) dynein motor domain fragment, P36022 1-4092
